Reference: US20140051120A1 (Genentech, published 2014)
Like-named read-outs stand apart in the source and are kept apart here. Each block holds one binder with its values, some of them ahead of it. Where no end group is shown, it is not given here.

Columns and labels:
[1] = target: T1, p2S (p2 peptide biotinylated through its free cysteine) (human, also: biotinylated (maleimide PEO2-biotin) on one of the two Cys, which one not given here); assay: SPR (BIAcore-2000), IgG injected over immobilized p2S peptide
T1 construct: The peptide has two cysteines; also called b-p2S
T1 peptide: RPRYACCPGWKRT

[2] = target: T1, p2S (p2 peptide biotinylated through …); assay: as above
[3] = target: EGFL7 coated on plates in the cell adhesion assay (human or mouse, not told apart at this place); assay: cell-based or functional assay
[4] = target: T1, p2S (p2 peptide biotinylated through …); assay: SPR (Biacore), binding to p2S, KD relative to ch4F11
[5] = target: T2, human EGFL7 (EGFL7-CB-His) (human, UniProt Q9UHF1 23-273, limits assumed); assay: cell-based or functional assay
T2 sequence: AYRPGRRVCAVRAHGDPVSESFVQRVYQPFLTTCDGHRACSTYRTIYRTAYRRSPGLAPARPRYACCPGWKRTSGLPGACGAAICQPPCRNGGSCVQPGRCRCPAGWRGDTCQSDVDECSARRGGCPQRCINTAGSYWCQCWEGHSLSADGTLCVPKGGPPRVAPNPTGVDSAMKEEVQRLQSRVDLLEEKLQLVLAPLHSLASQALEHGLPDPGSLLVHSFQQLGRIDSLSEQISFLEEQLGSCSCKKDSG

[6] = target: T3, mouse EGFL7 (mEGFL7-CB-His) (mouse, UniProt Q9QXT5 22-275); assay: cell-based or functional assay
T3 sequence: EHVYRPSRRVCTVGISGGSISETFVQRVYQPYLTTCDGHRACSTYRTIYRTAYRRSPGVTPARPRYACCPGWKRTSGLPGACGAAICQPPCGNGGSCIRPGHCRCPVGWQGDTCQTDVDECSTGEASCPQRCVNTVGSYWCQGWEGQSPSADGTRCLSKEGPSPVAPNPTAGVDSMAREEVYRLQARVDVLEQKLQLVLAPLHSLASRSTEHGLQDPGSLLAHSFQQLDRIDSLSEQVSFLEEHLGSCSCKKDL

[7] = target: T3, mouse EGFL7 (mEGFL7-CB-His); assay: SPR (Biacore), IgG over immobilized mEGFL7-CB at 37 C, n = 2
p5 peptide of EGFL7 = target: T4, p5 peptide of EGFL7 (human); assay: SPR (Biacore), IgG over immobilized P5 peptide at 37 C, n = 2
T4 construct: also called Peptide P5
T4 peptide: RACSTYRTIYRTA

[8] = target: T3, mouse EGFL7 (mEGFL7-CB-His); assay: SPR (Biacore), IgG over immobilized mEGFL7-CB at 37 C;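 further: IgG injected as twofold series from 0.5 to 1000 nM, 3 min association and 3.5 min dissociation, reference flow cell subtracted, kinetics fitted to 1:1 Langmuir model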

Kd [1]: 30.5 nM
koff [1]: 0.00276 s⁻¹
kon [1]: 90500 M⁻¹ s⁻¹
B1: 4F11.v15 IgG (antibody, name in Kabat numbering, V domains shown)
VH: EVQLVESGGGLVQPGGSLRLSCAASGHTFTTYGMSWVRQAPGKGLEWVGWINTHSGVPTYADDFKGRFTISLDNSKNTAYLQMNSLRAEDTAVYYCARLGSSAVDYWGQGTLVTVSS
VL: DIQMTQSPSSLSASVGDRVTITCKASQSVDYDGDSYMSWYQQKPGKAPKLLIYGASNLESGVPSRFSGSGSGTDFTLTISSLQPEDFATYYCQQNNEDPYTFGQGTKVEIKR
notes: IgG; Kabat numbering

Kd [2]: 19.5 nM
koff [2]: 0.0024 s⁻¹
kon [2]: 123000 M⁻¹ s⁻¹
Cell Adhesion Assay Variant/ch4F11 (fold) [3]: 4.01 fold
B2: 4F11.v6 IgG (antibody, V domains shown)
VH: EVQLVESGGGLVQPGGSLRLSCAASGHTFTTYGMSWVRQAPGKGLEWVGWINTHSGVPTYADDFKGRFTISRDNSKNTVYLQMNSLRAEDTAVYYCARLGSSAVDYWGQGTLVTVSS
VL: DIQMTQSPSSLSASVGDRVTITCKASQSVDYDGDSYMSWYQQKPGKAPKLLIYGASYLESGVPSRFSGSGSGTDFTLTISSLQPEDFATYYCQQNNEDPYTFGQGTKVEIK
notes: IgG; Kabat numbering

Kd [1]: 7 nM
koff [1]: 0.000984 s⁻¹
kon [1]: 141000 M⁻¹ s⁻¹
B3: 4F11.v14 IgG (antibody, name in Kabat numbering, V domains shown)
VH: EIQLVESGGGLVQPGGSLRLSCAASGHTFTTYGMSWVRQAPGKGLEWMGWINTHSGVPTYADDFKGRFTFSLDTSASTAYLQMNSLRAEDTAVYFCARLGSSAVDYWGQGTLVTVSS
VL: DIQLTQSPSSLSASVGDRVTITCKASQSVDYDGDSYMSWYQQKPGKAPKLLIYGASNLESGVPSRFSGSGSGTDFTLTISSLQPEDFATYYCQQNNEDPYTFGQGTKVEIKR
notes: IgG; Kabat numbering

Fold change in KD variant/(chimera) [4]: 0.93 fold
Cell Adhesion Assay (human EGFL7) Variant/ch4F11 (fold) [5]: 0.86 fold
IC50 (read off the curve), HUVEC adhesion [6]: ~10 µg/mL
B4: 4F11.v17 IgG (antibody, V domains shown)
VH: EVQLVESGGGLVQPGGSLRLSCAASGHTFTTYGMSWVRQAPGKGLEWVGWINTHSGVPTYADDFKGRFTISLDNSKNTAYLQMNSLRAEDTAVYYCARLGSYAVDYWGQGTLVTVSS
VL: DIQMTQSPSSLSASVGDRVTITCKASQSVDYSGDSYMSWYQQKPGKAPKLLIYGASYRESGVPSRFSGSGSGTDFTLTISSLQPEDFATYYCQQNNEEPYTFGQGTKVEIKR
notes: IgG; Library 1 framework; also called hu4F11.v17

Kd [2]: 9 nM
koff [2]: 0.0023 s⁻¹
kon [2]: 264000 M⁻¹ s⁻¹
B5: 4F11.v9 IgG (antibody, V domains shown)
VH: EVQLVESGGGLVQPGGSLRLSCAASGHTRTTYGMSWVRQAPGKGLEWVGWINTHSGVPTYADDFKGRFTISRDNSKNTVYLQMNSLRAEDTAVYYCARLGSSAVDYWGQGTLVTVSS
VL: DIQMTQSPSSLSASVGDRVTITCKASQSVDYDGDSYMSWYQQKPGKAPKLLIYGASNLESGVPSRFSGSGSGTDFTLTISSLQPEDFATYYCQQNNEDPYTFGQGTKVEIK
notes: IgG; Kabat numbering

Kd [1]: 12.5 nM
koff [1]: 0.00186 s⁻¹
kon [1]: 149000 M⁻¹ s⁻¹
B6: 4F11.v13 IgG (antibody, name in Kabat numbering, V domains shown)
VH: EVQLVESGGGLVQPGGSLRLSCAASGHTFTTYGMSWVRQAPGKGLEWVGWINTHSGVPTYADDFKGRFTISLDNSKNTAYLQMNSLRAEDTAVYYCARLGSSAVDYWGQGTLVTVSS
VL: DIQLTQSPSSLSASVGDRVTITCKASQSVDYDGDSYMSWYQQKPGKAPKLLIYGASNLESGVPSRFSGSGSGTDFTLTISSLQPEDFATYYCQQNNEDPYTFGQGTKVEIKR
notes: IgG; Kabat numbering

Kd [1]: 16.8 nM
koff [1]: 0.00165 s⁻¹
kon [1]: 98100 M⁻¹ s⁻¹
B7: 4F11.v16 IgG (antibody, name in Kabat numbering, V domains shown)
VH: EIQLVESGGGLVQPGGSLRLSCAASGHTFTTYGMSWVRQAPGKGLEWMGWINTHSGVPTYADDFKGRFTFSLDTSASTAYLQMNSLRAEDTAVYFCARLGSSAVDYWGQGTLVTVSS
VL: DIQMTQSPSSLSASVGDRVTITCKASQSVDYDGDSYMSWYQQKPGKAPKLLIYGASNLESGVPSRFSGSGSGTDFTLTISSLQPEDFATYYCQQNNEDPYTFGQGTKVEIKR
notes: IgG; Kabat numbering

Kd [2]: 11.1 nM
koff [2]: 0.00218 s⁻¹
kon [2]: 196000 M⁻¹ s⁻¹
B8: 4F11.v12 IgG (antibody, V domains shown)
VH: EVQLVESGGGLVQPGGSLRLSCAASGHTFTTYGMSWVRQAPGKGLEWVGWINIHSGVPTYADDFKGRFTISRDNSKNTVYLQMNSLRAEDTAVYYCARLGSSAVDYWGQGTLVTVSS
VL: DIQMTQSPSSLSASVGDRVTITCKASQSVDYDGDSYMSWYQQKPGKAPKLLIYGASNLESGVPSRFSGSGSGTDFTLTISSLQPEDFATYYCQQNNEDPYTFGQGTKVEIK
notes: IgG; Kabat numbering

Kd [2]: 34 nM
koff [2]: 0.00242 s⁻¹
kon [2]: 71100 M⁻¹ s⁻¹
B9: 4F11.v5 IgG (antibody, V domains shown)
VH: EVQLVESGGGLVQPGGSLRLSCAASGHTFTTYGMSWVRQAPGKGLEWVGWINTHSGVPTYADDFKGRFTISRDNSKNTVYLQMNSLRAEDTAVYYCARLGSSAVDYWGQGTLVTVSS
VL: DIQMTQSPSSLSASVGDRVTITCKASQSVDYDGDSYVSWYQQKPGKAPKLLIYGASNLESGVPSRFSGSGSGTDFTLTISSLQPEDFATYYCQQNNEDPYTFGQGTKVEIK
notes: IgG; Kabat numbering

Fold change in KD variant/(chimera) [4]: 1 fold
Cell Adhesion Assay (human EGFL7) Variant/ch4F11 (fold) [5]: 0.81 fold
B10: 4F11.v22 IgG (antibody, V domains shown)
VH: EIQLVESGGGLVQPGGSLRLSCAASGHTFTTYGMSWVRQAPGKGLEWMGWINTHSGVPTYADDFKGRFTISLDNSKSTAYLQMNSLRAEDTAVYFCARLGSYAVDYWGQGTLVTVSS
VL: DIQMTQSPSSLSASVGDRVTITCKASQSVDYSGDSYMSWYQQKPGKAPKLLIYGASYRESGVPSRFSGSGSGTDFTLTISSLQPEDFATYYCQQNNEEPYTFGQGTKVEIKR
notes: IgG; Library 2 framework

Kd [2]: 27.4 nM
koff [2]: 0.00197 s⁻¹
kon [2]: 72000 M⁻¹ s⁻¹
Cell Adhesion Assay Variant/ch4F11 (fold) [3]: 4.38 fold
B11: 4F11.v10 IgG (antibody, V domains shown)
VH: EVQLVESGGGLVQPGGSLRLSCAASGHTFTTYGMSWVRQAPGKGLEWVGWINTHSGVPTYADDFKGRFTISRDNSKNTVYLQMNSLRAEDTAVYYCARLGSYAVDYWGQGTLVTVSS
VL: DIQMTQSPSSLSASVGDRVTITCKASQSVDYDGDSYMSWYQQKPGKAPKLLIYGASYLESGVPSRFSGSGSGTDFTLTISSLQPEDFATYYCQQNNEDPYTFGQGTKVEIK
notes: IgG; Kabat numbering

Kd [7]: 2.4 nM
koff [7]: 8.1e-05 s⁻¹
kon [7]: 36000 M⁻¹ s⁻¹
Kd (p5 peptide of EGFL7): 4.13 nM
koff (p5 peptide of EGFL7): 0.000502 s⁻¹
kon (p5 peptide of EGFL7): 124000 M⁻¹ s⁻¹
B12: 18F7.v6C IgG (antibody, V domains shown)
VH: EVQLVESGGGLVQPGGSLRLSCAASGYTFIDYYMNWVRQAPGKGLEWVGDINLDNSGTHYNQKFKGRFTISRDKSKNTAYLQMNSLRAEDTAVYYCAREGVYHDYDDYAMDYWGQGTLVTVSS
VL: DIQMTQSPSSLSASVGDRVTITCRTSQSLVHINGITYLHWYQQKPGKAPKLLIYRVSNRFSGVPSRFSGSGSGTDFTLTISSLQPEDFATYYCGQSTHVPLTFGQGTKVEIK
notes: IgG; Variant of 18F7.v6

Kd [7]: 2.68 nM
koff [7]: 0.000174 s⁻¹
kon [7]: 79000 M⁻¹ s⁻¹
Kd (p5 peptide of EGFL7): 3.22 nM
koff (p5 peptide of EGFL7): 0.000638 s⁻¹
kon (p5 peptide of EGFL7): 196000 M⁻¹ s⁻¹
B13: 18F7.v6B IgG (antibody, V domains shown)
VH: EVQLVESGGGLVQPGGSLRLSCAASGYTFIDYYMNWVRQAPGKGLEWVGDINLDSGGTHYNQKFKGRFTISRDKSKNTAYLQMNSLRAEDTAVYYCAREGVYHDYDDYAMDYWGQGTLVTVSS
VL: DIQMTQSPSSLSASVGDRVTITCRTSQSLVHINGITYLHWYQQKPGKAPKLLIYRVSNRFSGVPSRFSGSGSGTDFTLTISSLQPEDFATYYCGQSTHVPLTFGQGTKVEIK
notes: IgG; Variant of 18F7.v6

Kd [8]: 7.65 nM
koff [8]: 0.000791 s⁻¹
kon [8]: 103000 M⁻¹ s⁻¹
Kd (p5 peptide of EGFL7): 9.77 nM
koff (p5 peptide of EGFL7): 0.00232 s⁻¹
kon (p5 peptide of EGFL7): 313000 M⁻¹ s⁻¹
B14: 18F7.v6D IgG (antibody, V domains shown)
VH: EVQLVESGGGLVQPGGSLRLSCAASGYTFIDYYMNWVRQAPGKGLEWVGDINLDSGGTHYNQKFKGRFTISRDKSKNTAYLQMNSLRAEDTAVYYCAREGVYHDYDDYAMDYWGQGTLVTVSS
VL: DIQMTQSPSSLSASVGDRVTITCRTSQSLVHISGITYLHWYQQKPGKAPKLLIYRVSNRFSGVPSRFSGSGSGTDFTLTISSLQPEDFATYYCGQSTHVPLTFGQGTKVEIK
notes: IgG; Variant of 18F7.v6

Kd [7]: 7.29 nM
koff [7]: 0.000404 s⁻¹
kon [7]: 55000 M⁻¹ s⁻¹
Kd (p5 peptide of EGFL7): 3.74 nM
koff (p5 peptide of EGFL7): 0.00137 s⁻¹
kon (p5 peptide of EGFL7): 373000 M⁻¹ s⁻¹
B15: 18F7.v6A IgG (antibody, V domains shown)
VH: EVQLVESGGGLVQPGGSLRLSCAASGYTFIDYYMNWVRQAPGKGLEWVGDINLDNGGTHYNQKFKGRFTISRDKSKNTAYLQMNSLRAEDTAVYYCAREGVYHDYDDYAMDYWGQGTLVTVSS
VL: DIQMTQSPSSLSASVGDRVTITCRTSQSLVHISGITYLHWYQQKPGKAPKLLIYRVSNRFSGVPSRFSGSGSGTDFTLTISSLQPEDFATYYCGQSTHVPLTFGQGTKVEIK
notes: IgG; Variant of 18F7.v6
